Variants at the floor of the assay were thinned out.
Experiments:
[1] = tested on: biotinyl-Val-oxazolone; experiment: self-aminoacylation, catalytic enhancement (BVO) (fold over background); higher = more active; k-Seq, kA / k0A0; sequences stand for … in GGGAAUGGAUCCACAUCUACGAAUUC…UUCACUGCAGACUUGACGAAGCUG
Summary of the method: (§1)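 Each biotinyl-aminoacyl-oxazolone, at 2–1250 μM, was incubated with mutagenized RNA pools (0.43 μM) carrying a 21-nt variable region. The 50 μL reactions contained HEPES/NaCl/KCl/MgCl2/CaCl2 buffer with 5% acetonitrile at pH 6.9–7.0 and ran for 90 minutes at room temperature. After streptavidin capture, RNA was measured by qPCR in triplicate and by Illumina sequencing, and catalytic enhancement was calculated as median kA over the uncatalyzed rate from a pseudo-first-order fit of per-sequence fraction reacted.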

[2] = tested on: biotinyl-Leu-oxazolone; experiment: self-aminoacylation, catalytic enhancement (BLO) (fold over background); higher = more active; k-Seq, kA / k0A0; sequences stand for … in GGGAAUGGAUCCACAUCUACGAAUUC…UUCACUGCAGACUUGACGAAGCUG
Summary of the method: as §1

[3] = tested on: biotinyl-Met-oxazolone; experiment: self-aminoacylation, catalytic enhancement (BMO) (fold over background); higher = more active; k-Seq, kA / k0A0; sequences stand for … in GGGAAUGGAUCCACAUCUACGAAUUC…UUCACUGCAGACUUGACGAAGCUG
Summary of the method: as §1

[4] = tested on: biotinyl-Trp-oxazolone; experiment: self-aminoacylation, catalytic enhancement (BWO) (fold over background); higher = more active; k-Seq, kA / k0A0; sequences stand for … in GGGAAUGGAUCCACAUCUACGAAUUC…UUCACUGCAGACUUGACGAAGCUG
Summary of the method: as §1

[5] = tested on: biotinyl-Ile-oxazolone; experiment: self-aminoacylation, catalytic enhancement (BIO) (fold over background); higher = more active; k-Seq, kA / k0A0; sequences stand for … in GGGAAUGGAUCCACAUCUACGAAUUC…UUCACUGCAGACUUGACGAAGCUG
Summary of the method: as §1

[6] = tested on: biotinyl-Phe-oxazolone; experiment: self-aminoacylation, catalytic enhancement (BFO) (fold over background); higher = more active; k-Seq, kA / k0A0; sequences stand for … in GGGAAUGGAUCCACAUCUACGAAUUC…UUCACUGCAGACUUGACGAAGCUG
Summary of the method: as §1

Row | Sequence | self-aminoacylation [1] | self-aminoacylation [2] | self-aminoacylation [3] | self-aminoacylation [4] | self-aminoacylation [5] | self-aminoacylation [6]
1 | AUUAGCCUGUUCAUCGAGUGA [Fam2.1 aminoacylation ribozyme variant] | 3.27 | 5.5 | 5.64 | 7.22 | 3.04 | 18
2 | AUAACCCUGGUGAUCGAGUGA [Fam2.1 aminoacylation ribozyme variant] | 3.03 | 6.37 | 6.53 | 7.08 | 3.03 | 36.3
3 | AUUCACCUAGGUCGACGGGUG [Fam2.2 aminoacylation ribozyme variant] | 1.87 | 3.27 | 2.93 | 2.19 | 1.88 | 13.3
4 | CCACACUUCAAGCAAGCUGUC [Fam1B.1 aminoacylation ribozyme variant] | 0.565 | 0.404 | 0.451 | 0.346 | 0.504 | 0.716
5 | AAGUUUGGUAAGAGUCGCAAG [Fam3.1 aminoacylation ribozyme variant] | 1.3 | 1.43 | 1.3 | 1.31 | 1.58 | 1.7
6 | AUGCACCUAGGUGAUCGGGUG [Fam2.2 aminoacylation ribozyme variant] | 3.71 | 5.11 | 4.8 | 6.5 | 4.96 | 30.7
7 | AUUCCCCUAGGUCAUCGGGUC [Fam2.2 aminoacylation ribozyme variant] | 5.52 | 5.52 | 4.08 | 4 | 4.5 | 22.8
8 | AAGUUUGCUAUUGGUCGCAAG [Fam3.1 aminoacylation ribozyme variant] | 0.76 | 1.05 | 0.756 | 0.66 | 0.787 | 1.46
9 | AAGUUUGCUAAGAGUUGCAAG [Fam3.1 aminoacylation ribozyme variant] | 0.757 | 0.86 | 0.665 | 0.97 | 0.797 | 0.74
10 | AUUACCCUGGUCAUAGCGUGA [Fam2.1 aminoacylation ribozyme variant] | 4.99 | 9.18 | 8.87 | 10.6 | 4.12 | 51.8
11 | AUUCACAUAGGUGAUCGGGUG [Fam2.2 aminoacylation ribozyme variant] | 3.14 | 3.56 | 3.4 | 3.79 | 3.05 | 20.5
12 | GUGCACCUAGGUCAUCGGGUG [Fam2.2 aminoacylation ribozyme variant] | 4.64 | 3.9 | 3.85 | 6.04 | 3.96 | 26.8
13 | AUUCACAUAGUUCAUCGGGUG [Fam2.2 aminoacylation ribozyme variant] | 2.3 | 3.48 | 2.76 | 2.42 | 2.27 | 19.2
14 | AUUGACCUCGGUCAUCGGGUG [Fam2.2 aminoacylation ribozyme variant] | 3.69 | 4.55 | 4.12 | 3.78 | 3.05 | 20.3
15 | GAGUUUGCCAAUAGUCGCAAG [Fam3.1 aminoacylation ribozyme variant] | 1.48 | 1.09 | 1.1 | 2.08 | 1.7 | 4.39
16 | CUACUCCGAACAAUCGGUCUG [Fam1A.1 aminoacylation ribozyme variant] | 0.812 | 0.889 | 0.668 | 0.806 | 0.847 | 0.826
17 | CUACCUCAAACAAUUGGUCUG [Fam1A.1 aminoacylation ribozyme variant] | 1.04 | 0.824 | 1.08 | 0.733 | 1.08 | 0.81
18 | UUACUUCAAACAAUCGAUCUG [Fam1A.1 aminoacylation ribozyme variant] | 0.719 | 0.824 | 0.711 | 0.866 | 0.852 | 1.8
19 | CUUACCCUGGUCAUCAAGUGA [Fam2.1 aminoacylation ribozyme variant] | 1.93 | 2.58 | 2.58 | 3.4 | 1.67 | 4.44
20 | CCACACUUCAAGCGAUCGGUC [Fam1B.1 aminoacylation ribozyme variant] | 1.02 | 0.815 | 0.743 | 1.51 | 0.887 | 1.72
21 | CUACUUCAAACAUUCGUUCUG [Fam1A.1 aminoacylation ribozyme variant] | 0.706 | 0.659 | 0.669 | 0.504 | 0.713 | 0.513
22 | AUUUACCUAAGUCAUCGGGUG [Fam2.2 aminoacylation ribozyme variant] | 4.66 | 11.1 | 7.89 | 7.89 | 4.85 | 64.2
23 | CCAUACUUCAAGCACUCGGUC [Fam1B.1 aminoacylation ribozyme variant] | 1.07 | 0.962 | 0.904 | 0.69 | 1.01 | 1.11
24 | GUACUUCAAACAAUCGGUCAG [Fam1A.1 aminoacylation ribozyme variant] | 1.34 | 1.43 | 1.31 | 7.34 | 1.5 | 7.14
25 | AUUCUCCAAGGUCAUCGGGUG [Fam2.2 aminoacylation ribozyme variant] | 7.99 | 15.6 | 11.8 | 10.7 | 6.8 | 102
26 | AUUCCCCUGGUCAUCGAGCGA [Fam2.1 aminoacylation ribozyme variant] | 2.17 | 2.75 | 2.63 | 1.53 | 2.14 | 8.04

Row | Sequence | self-aminoacylation [1] | self-aminoacylation [2] | self-aminoacylation [3] | self-aminoacylation [4] | self-aminoacylation [5] | self-aminoacylation [6]
27 | CCACACUUCAACCAAUCCGUC [Fam1B.1 aminoacylation ribozyme variant] | 0.867 | 0.784 | 0.672 | 0.919 | 1.07 | 1.33
28 | CUACUUCAAACAAUUGGCCUG [Fam1A.1 aminoacylation ribozyme variant] | 1.33 | 1.34 | 1.11 | 2.03 | 1.57 | 2.28
29 | AUUUACCUAGGUCACCGGGUG [Fam2.2 aminoacylation ribozyme variant] | 3.08 | 6.09 | 4.23 | 3.83 | 3.61 | 26.5
30 | AUUCACCUAGUUCAUCGGCUG [Fam2.2 aminoacylation ribozyme variant] | 1.55 | 1.57 | 1.27 | 1.03 | 1.36 | 4.73
31 | AAACACCUAGGUCAUCGGGUG [Fam2.2 aminoacylation ribozyme variant] | 3.09 | 3.04 | 2.46 | 4.7 | 3.41 | 23.9
32 | CUACUUCAAACAAUCGUUCAG [Fam1A.1 aminoacylation ribozyme variant] | 0.769 | 0.497 | 0.566 | 0.523 | 0.658 | 0.81
33 | CUACUACAAAGAAUCGGUCUG [Fam1A.1 aminoacylation ribozyme variant] | 0.54 | 0.775 | 0.788 | 0.8 | 0.781 | 0.547
34 | AGUACCCGGGUCAUCGAGUGA [Fam2.1 aminoacylation ribozyme variant] | 3.98 | 7.7 | 7.25 | 7.64 | 4.51 | 49.1
35 | ACACACUUCAAACAAUCGGUC [Fam1B.1 aminoacylation ribozyme variant] | 1.79 | 2.39 | 1.38 | 40.6 | 1.73 | 65.1
36 | AUUCCCCCAGGUCAUCGGGUG [Fam2.2 aminoacylation ribozyme variant] | 11.4 | 24.7 | 17.1 | 17.1 | 14 | 174
37 | AUGUUUUCUAAUAGUCGCAAG [Fam3.1 aminoacylation ribozyme variant] | 1.2 | 1.52 | 1.62 | 2.2 | 1.62 | 2.58
38 | CUACUCCAAACAAUCGGUCUU [Fam1A.1 aminoacylation ribozyme variant] | 0.958 | 0.868 | 0.803 | 1.2 | 0.864 | 1.74
39 | CCACACUACAAGCAUUCGGUC [Fam1B.1 aminoacylation ribozyme variant] | 2.71 | 1.73 | 2.58 | 2.04 | 2.14 | 3.61
40 | AAGAUUGCUAGUAGUCGCAAG [Fam3.1 aminoacylation ribozyme variant] | 1.61 | 1.89 | 1.83 | 1.48 | 1.36 | 1.28
41 | CUAAUUCAAACAAUCGGUCUU [Fam1A.1 aminoacylation ribozyme variant] | 0.716 | 0.629 | 0.695 | 1.32 | 0.743 | 2.49
42 | AUUACUCUGGUCACCGAGUGA [Fam2.1 aminoacylation ribozyme variant] | 3.27 | 8.45 | 7.28 | 9.08 | 3.28 | 44.4
43 | CGACACUCCAAGCAAUCGGUC [Fam1B.1 aminoacylation ribozyme variant] | 1.11 | 0.842 | 0.665 | 1.19 | 1.11 | 0.914
44 | UCACACUUCAAGAAAUCGGUC [Fam1B.1 aminoacylation ribozyme variant] | 0.888 | 0.906 | 0.819 | 6.06 | 0.947 | 7.38
45 | AUUAACCUUGUCAUCGAGUGA [Fam2.1 aminoacylation ribozyme variant] | 3.39 | 6.72 | 6.16 | 7.59 | 3.25 | 17.6
46 | AUUCACCUACGUCAUCGGGAG [Fam2.2 aminoacylation ribozyme variant] | 0.861 | 1.07 | 1.23 | 0.502 | 0.803 | 0.516
47 | AAGUUUGAUAAUGGUCGCAAG [Fam3.1 aminoacylation ribozyme variant] | 0.644 | 0.895 | 0.785 | 0.581 | 0.891 | 1.47
48 | AUUCAUCUAGGUCGUCGGGUG [Fam2.2 aminoacylation ribozyme variant] | 1.86 | 2.27 | 2.1 | 1.68 | 1.93 | 4.73
49 | AUUGACCUAGGUCAACGGGUG [Fam2.2 aminoacylation ribozyme variant] | 2.31 | 2.43 | 2.6 | 2.72 | 2.46 | 8.47
50 | AAGUUUGCGAAUAGUCACAAG [Fam3.1 aminoacylation ribozyme variant] | 0.962 | 0.774 | 0.933 | 0.863 | 1.17 | 1.66
51 | AUUCACCGAGGACAUCGGGUG [Fam2.2 aminoacylation ribozyme variant] | 3.78 | 6.02 | 5.56 | 5.74 | 3.59 | 35.9
